Assay results: PMC10917276, “A tick saliva serpin, IxsS17 inhibits host innate immune system proteases and enhances host colonization by Lyme disease agent” (PLOS Pathogens, 2024)

B1: rat skin trypsin IV (enzyme, UniProt P12788 24-247, looked up)
chain: IVGGYTCPKHLVPYQVSLHDGISHQCGGSLISDQWVLSAAHCYKRKLQVRLGEHNIHVLEGGEQFIDAEKIIRHPEYNKDTLDNDIMLIKLKSPAVLNSQVSTVSLPRSCASTDAQCLVSGWGNTVSIGGKYPALLQCLEAPVLSASSCKKSYPGQITSNMFCLGFLEGGKDSCDGDSGGPVVCNGEIQGIVSWGSVCAMRGKPGVYTKVCNYLSWIQETMANN
notes: rat trypsin IV, in house expressed; construct not described; also called rat trypsin IV; source: in house expressed
B2: blood clotting factor Xa (enzyme)
chain 1: ANSFLEEMKKGHLERECMEETCSYEEAREVFEDSDKTNEFWNKYKDGDQCETSPCQNQGKCKDGLGEYTCTCLEGFEGKNCELFTRKLCSLDNGDCDQFCHEEQNSVVCSCARGYTLADNGKACIPTGPYPCGKQTLER
chain 2: IVGGQECKDGECPWQALLINEENEGFCGGTILSEFYILTAAHCLYQAKRFKVRVGDRNTEQEEGGEAVHEVEVVIKHNRFTKETYDFDIAVLRLKTPITFRMNVAPACLPERDWAESTLMTQKTGIVSGFGRTHEKGRQSTRLKMLEVPYVDRNSCKLSSSFIITQNMFCAGYDTKQEDACQGDSGGPHVTRFKDTYFVTGIVSWGEGCARKGKYGIYTKVTAFLKWIDRSMKTRGLPKAKSHAPEVITSSPLK
B3: C-terminal hexa-histidine tagged recombinant Ixodes scapularis serpin 17 (rIxsS17) (natural protein)
chain: DDISQDKWKLARANNYLGLNLLKQLPSNDKTNVFFSPFSVSTAMGMAYAGARGDTLEQLTLNFGYAADELNEGKVLALFKEQLQSTNDLPHDYTLNIANAAVAQEGYGILPEYTDALTSSFGAEYIEADFQKRGQEAIQKINAWVSNRTHGKVQSLFDEPPDFSTRLILLNAIYYKGTWLYEFDKTKTKPRSFYNGGVEKVQVPMMRLKSTLNHTYNAILNADLVDLPYVGNDFSMTIILPREKTGLASLKSVLTSQTLNLALQNMYPKDMKLKLPKFKLDTKYTLKPTLEAMGITKIFSADADLSGISGSRNLYVSDVLHKAVLEVNEEGSEAAAVTGFVIQLRTAAFVTPPPLPKVYVDHPFIFLIRNSRTNTIMFLGEINAL
modifications: glycosylated (sites not given)
notes: Ixodes scapularis tick saliva serpin 17 (IxsS17), GenBank EEC18973.1; Codon-optimised synthetic gene in pPICZαA; also called C-terminal-His-rIxsS17; C-terminal His-tagged rIsS17; source: Pichia pastoris X33, secreted into medium, purified (ammonium sulfate, Hi-Trap Chelating HP); not shown: His6, C-terminal, kept

Tests used:
[1] = biological target: bovine pancreatic trypsin (bovine)
[2] = biological target: bovine pancreatic trypsin (bovine); assay: discontinuous inhibition kinetics from residual protease activity (second-order rate constant); rIxsS17 50-1000 nM with bovine trypsin 14.6 nM, trypsin IV 12.5 nM or fXa 13.9 nM for 0-15 min at 37°C; kobs from semi-log plots, ka from the slope of kobs against rIxsS17 concentration
[3] = biological target: bovine pancreatic trypsin (bovine); assay: stoichiometry of inhibition from residual protease activity (substrate hydrolysis); molar ratios of His-tagged rIxsS17 to protease 0, 2.5, 5, 10, 20, 25, 50; 15 min at 37°C; bovine trypsin 1.5 nM, rat trypsin IV 2.0 nM or factor Xa 13.9 nM; linear regression extrapolated to zero activity
[4] = biological target: B3; assay: discontinuous inhibition kinetics from residual protease activity (second-order rate constant); rIxsS17 50-1000 nM with bovine trypsin 14.6 nM, trypsin IV 12.5 nM or fXa 13.9 nM for 0-15 min at 37°C; kobs from semi-log plots, ka from the slope of kobs against rIxsS17 concentration; details: both partners purified
[5] = biological target: B2; assay: stoichiometry of inhibition from residual protease activity (substrate hydrolysis); molar ratios of His-tagged rIxsS17 to protease 0, 2.5, 5, 10, 20, 25, 50; 15 min at 37°C; bovine trypsin 1.5 nM, rat trypsin IV 2.0 nM or factor Xa 13.9 nM; linear regression extrapolated to zero activity; details: both partners purified
[6] = biological target: B1; assay: as above; details: both partners purified

In the case of “N-terminal hexa-histidine tagged rIxsS17 with TEV site (natural protein)”, the decrease in the inhibitory activity against trypsin of the N-terminal hexa-His construct (substrate hydrolysis assay) [1] is reported as 8.6%.

For “C-terminal hexa-histidine tagged recombinant Ixodes scapularis serpin 17 (rIxsS17) (from UniProt A0ACM8DKW3 71-455) (natural protein)”, the kon [2] was 2700 M⁻¹ s⁻¹ and the stoichiometry of inhibition (SI) [3] was 12.9.

B1 was tested, and the kon [4] was 3900 M⁻¹ s⁻¹.

With B2 the kon [4] was 540 M⁻¹ s⁻¹.

B3 was tested, and the “stoichiometry of inhibition (SI)” value [5] was 68 and the “stoichiometry of inhibition (SI)” value [6] was 10.5.
